Test results taken from the supplement of paper PMC9732359.
± gives the uncertainty stated by the source.

Assay: protein stability index of a GFP-peptide fusion (yeast GPS) (PSI 1-4); higher = more stable; sorted into four equal gates, so the index is relative within each strain
Method in brief: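 The protein stability index of a peptide was calculated by multiplying its read frequency in each gate by that gate's number and adding the products. The peptides were tiled 17-residue stretches of yeast proteins, fused downstream of GFP on a Cherry-expressing plasmid and carried in yeast as a pooled library. Mid-log cultures in leucine-free medium were sorted into four equal gates by GFP/Cherry ratio, and each gate's plasmids were PCR-amplified and Illumina-sequenced.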

Row | Sequence | protein stability index (doa10∆) | protein stability index (pdr5∆) | protein stability index (san1∆) | protein stability index (ubr1∆)
1 | DLIRSESMLHLSIWIKN [IRR1] | 1.62 ± 0.057 | 2.01 ± 0.05 | 1.51 ± 0.098 | 1.8 ± 0.04
2 | DLISKKTKTSLLPTIKR [RPR2] | 3.09 ± 0.079 | 2.58 ± 0.073 | 2.58 ± 0.086 | 2.74 ± 0.063
3 | DLKRFVDESLLSTLPAG [QCR2] | 3.02 ± 0.067 | 3.23 ± 0.085 | 2.52 ± 0.099 | 3 ± 0.051
4 | DLLHPTAASEARKHKLK [RPS27A] | 2.29 ± 0.1 | 3.11 ± 0.068 | 2.53 ± 0.11 | 3.07 ± 0.072
5 | DLMDEELRKHAQKRVSN [SKI6] | 3.38 ± 0.16 | 3.45 ± 0.11 | 2.8 ± 0.085 | 3.21 ± 0.077
6 | DLSEKILNDIETLEHNP [BRR2] | 3.06 ± 0.055 | 3.21 ± 0.07 | 3.05 ± 0.055 | 3.13 ± 0.043
7 | DLSSAASASGAAGAGAA [FAS2] | 1.78 ± 0.13 | 1.51 ± 0.11 |  | 1.66 ± 0.19
8 | DMFEMSDEEENNNNKSI [SSN2] |  | 3.19 ± 0.18 | 3.32 ± 0.17 | 3.04 ± 0.079
9 | DMLTWVDSNLPDDEKFT [RPC40] | 2.92 ± 0.074 | 3.14 ± 0.063 | 2.56 ± 0.16 | 3.26 ± 0.074
10 | DNEEASVKLDLQDDEDH [BRN1] | 2.99 ± 0.1 | 3.45 ± 0.084 | 3.05 ± 0.071 | 3.35 ± 0.097
11 | DNFSPHQNVIIGSNGSG [SMC3] |  | 2.89 ± 0.14 | 2.78 ± 0.088 | 3.28 ± 0.079
12 | DNGGTILGIAGEDFAVL [PRE7] | 3.46 ± 0.099 | 3.08 ± 0.13 | 3.34 ± 0.14 | 3.47 ± 0.052
13 | DNIRYATALQTCAGGRL [SMC2] | 2.31 ± 0.086 | 3.02 ± 0.083 | 2.8 ± 0.11 | 1.62 ± 0.058
14 | DNIYRNLQKIDKDSEEL [MED4] | 2.85 ± 0.078 | 3.16 ± 0.058 | 2.85 ± 0.049 | 3.01 ± 0.054
15 | DNKEKDFELEISWCSLS [PRE10] | 3.54 ± 0.12 | 3.13 ± 0.14 | 2.87 ± 0.13 | 3.13 ± 0.088
16 | DNLLEMSDHSLDKLNCA [RRP6] | 3.28 ± 0.099 | 3 ± 0.068 | 3.22 ± 0.1 | 3.25 ± 0.049
17 | DNLLLNLEQINEDLEDG [REC8] | 2.81 ± 0.056 | 2.67 ± 0.066 | 2.71 ± 0.08 | 3.07 ± 0.061
18 | DNVNSTTGSIFEKDLMA [BRN1] | 2.98 ± 0.067 | 3.01 ± 0.068 | 3.07 ± 0.071 | 2.99 ± 0.041
19 | DNVSFIEEAKSIRRQDY [REC8] | 2.85 ± 0.12 | 3.06 ± 0.11 | 3.28 ± 0.09 | 3.15 ± 0.08
20 | DPASFYLFDEIDAALDK [SMC3] | 2.89 ± 0.075 | 3.02 ± 0.082 | 2.61 ± 0.083 | 2.72 ± 0.046
21 | DPEKDSINATALAFGYV [SIN4] | 2.16 ± 0.052 | 1.56 ± 0.058 | 1.52 ± 0.15 | 1.82 ± 0.042
22 | DPLLSLYNFLHKYVLTL [RGR1] | 2.5 ± 0.043 | 2.12 ± 0.07 | 2.49 ± 0.05 | 2.12 ± 0.046
23 | DPPNEGDPFDYKAQADT [RPB3] | 3.18 ± 0.13 | 3.42 ± 0.12 | 3.34 ± 0.12 | 3.12 ± 0.073
24 | DPQHKAIRRDARYNWIC [RPL15A] | 2.86 ± 0.088 | 3.31 ± 0.12 | 2.92 ± 0.16 | 3.11 ± 0.16
25 | DPVLDWRKSDRELTKNI [SIR4] | 2.89 ± 0.096 | 2.2 ± 0.083 | 2.52 ± 0.16 | 2.26 ± 0.08

Row | Sequence | protein stability index (doa10∆) | protein stability index (pdr5∆) | protein stability index (san1∆) | protein stability index (ubr1∆)
26 | DQFHRDTISAITHQLNN [RPC25] | 1.54 ± 0.049 | 2.12 ± 0.057 | 1.84 ± 0.076 | 1.67 ± 0.034
27 | DQFIRHVLRGVESPDKN [YCG1] |  | 3.77 ± 0.2 | 3.18 ± 0.14 | 
28 | DQFITSLKCTDPYELKG [ITC1] | 3.02 ± 0.12 | 2.66 ± 0.09 | 2.78 ± 0.088 | 2.95 ± 0.1
29 | DQKIWPYLEKYPEYDQI [SSN3] | 3.5 ± 0.12 | 3.08 ± 0.09 | 3.11 ± 0.065 | 3.43 ± 0.1
30 | DQKPIEHIKEGSEIAIS [SWI3] | 2.93 ± 0.058 | 3.21 ± 0.069 | 2.87 ± 0.064 | 2.92 ± 0.04
31 | DQKTGRAKSSSHLFNEY [RPN4] | 2.85 ± 0.25 | 3.22 ± 0.24 | 3.39 ± 0.12 | 3.46 ± 0.15
32 | DQNPIQVVVDAITNTGP [RPS5] | 2.35 ± 0.053 | 2.79 ± 0.041 | 2.76 ± 0.061 | 2.13 ± 0.041
33 | DQQSPWLLRLELDRAAM [RPO21] | 1.49 ± 0.22 | 1.83 ± 0.14 | 1.93 ± 0.13 | 2.66 ± 0.1
34 | DQWLEEYKKHFPPNLEK [UBP6] | 2.77 ± 0.081 | 3.06 ± 0.053 | 2.88 ± 0.05 | 2.96 ± 0.067
35 | DRFKYRSVDRAGRKFKS [POP4] | 3.04 ± 0.2 | 3.24 ± 0.18 | 3.52 ± 0.097 | 3.55 ± 0.16
36 | DRFPLKLREPVARFLHF [ITC1] | 1.69 ± 0.076 | 1.7 ± 0.067 | 1.79 ± 0.12 | 1.91 ± 0.046
37 | DRHIGCAMSGLTADARS [PUP2] | 2.67 ± 0.096 | 3.08 ± 0.12 |  | 2.69 ± 0.07
38 | DRQLHEISTSKKNNLEF [RPN14] | 2.96 ± 0.064 | 3.13 ± 0.075 | 2.93 ± 0.071 | 3.17 ± 0.093
39 | DRRKARKAYFTAPSSER [RPL26B] | 2.77 ± 0.17 | 2.72 ± 0.16 | 3.12 ± 0.082 | 3.1 ± 0.14
40 | DRTMLAPMDFAIVVGWR [FAS1] | 2.49 ± 0.075 | 2.43 ± 0.062 | 2.68 ± 0.062 | 1.77 ± 0.041
41 | DRTQDRADVEDESNDID [RPC37] | 3.33 ± 0.087 | 3.52 ± 0.092 | 3.13 ± 0.11 | 3.4 ± 0.073
42 | DSEGSIKQTSDESTIKR [ECM29] | 3.43 ± 0.11 | 3.56 ± 0.085 | 3.43 ± 0.068 | 3.41 ± 0.063
43 | DSFENYFNQLKPYYFSN [RPN12] | 2.66 ± 0.083 | 2.95 ± 0.1 | 2.97 ± 0.058 | 3.02 ± 0.056
44 | DSFSVPNRLVKELQYDN [PRE2] | 3.02 ± 0.18 | 2.94 ± 0.24 | 3.09 ± 0.11 | 3.37 ± 0.29
45 | DSFTMPNISHSNIDYQT [SNF2] | 2.4 ± 0.088 | 2.12 ± 0.1 | 2.49 ± 0.13 | 2.41 ± 0.072
46 | DSLKKLLPQWDDDQIES [ARP9] | 3.32 ± 0.14 | 3.17 ± 0.087 | 2.83 ± 0.071 | 3.17 ± 0.081
47 | DSLNDDLNKENKLLRRK [YIL149C/MLP2] | 2.98 ± 0.21 | 3.24 ± 0.18 | 3.01 ± 0.15 | 3.31 ± 0.065
48 | DSLSGAVIAAIMQEAGL [RPT3] |  | 1.14 ± 0.18 |  | 
49 | DSLTRAVKDQQKYTKEM [SNF2] | 1.47 ± 0.19 | 1.8 ± 0.11 | 1.25 ± 0.15 | 
50 | DSQIVTPGELVTDDPIW [RRP4] | 2.78 ± 0.19 | 3.07 ± 0.11 | 2.76 ± 0.095 | 2.94 ± 0.077
